The values below come from publication PMC12416549 (2024).

Changes are numbered by the printed parent chain. Names may count otherwise.

To fix the notation:
T1: TNFR1 (Homo sapiens, UniProt P19438)
T1 chain: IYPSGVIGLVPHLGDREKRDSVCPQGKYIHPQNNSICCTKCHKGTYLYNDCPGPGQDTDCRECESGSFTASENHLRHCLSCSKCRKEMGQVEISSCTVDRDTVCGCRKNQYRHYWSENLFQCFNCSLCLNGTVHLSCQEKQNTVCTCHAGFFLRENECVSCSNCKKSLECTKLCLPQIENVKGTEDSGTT

B1: A19I (designed binder)
chain: MTLQELLREEALRRAEAEIFRYALELLAEKFPEQKEYLLDLAEEIESQIRSLSGVDVEDVRKFLDKEWAWVKELLAEHPAELAEVEAARAARLAELRAEVEAKVAA
B2: Y37A (designed binder)
chain: B1 chain with I19A, Y37A
B3: E16I (designed binder)
chain: B1 chain with E16I, I19A
B4: D65I (designed binder)
chain: B1 chain with I19A, D65I
B5: V100Q (designed binder)
chain: B1 chain with I19A, V100Q
B6: A102L (designed binder)
chain: B1 chain with I19A, A102L
B7: V71D (designed binder)
chain: B1 chain with I19A, V71D
B8: E84V (designed binder)
chain: B1 chain with I19A, E84V
B9: Y37I (designed binder)
chain: B1 chain with I19A, Y37I
B10: L24G (designed binder)
chain: B1 chain with I19A, L24G
B11: L39H (designed binder)
chain: B1 chain with I19A, L39H
B12: E58K (designed binder)
chain: B1 chain with I19A, E58K
B13: D56A (designed binder)
chain: B1 chain with I19A, D56A
B14: R92F (designed binder)
chain: B1 chain with I19A, R92F
B15: L75R (designed binder)
chain: B1 chain with I19A, L75R
B16: T2K (designed binder)
chain: B1 chain with T2K, I19A
B17: L12V (designed binder)
chain: B1 chain with L12V, I19A
B18: A83P (designed binder)
chain: B1 chain with I19A, A83P
B19: R50G (designed binder)
chain: B1 chain with I19A, R50G
B20: L6V (designed binder)
chain: B1 chain with L6V, I19A
B21: A87F (designed binder)
chain: B1 chain with I19A, A87F
B22: A106F (designed binder)
chain: B1 chain with I19A, A106F
B23: V85R (designed binder)
chain: B1 chain with I19A, V85R
B24: V71R (designed binder)
chain: B1 chain with I19A, V71R
B25: L24D (designed binder)
chain: B1 chain with I19A, L24D
B26: E67M (designed binder)
chain: B1 chain with I19A, E67M
B27: E18D (designed binder)
chain: B1 chain with E18D, I19A
B28: V60T (designed binder)
chain: B1 chain with I19A, V60T
B29: A106M (designed binder)
chain: B1 chain with I19A, A106M
B30: E10L (designed binder)
chain: B1 chain with E10L, I19A
B31: A90L (designed binder)
chain: B1 chain with I19A, A90L
B32: R89I (designed binder)
chain: B1 chain with I19A, R89I
B33: V104I (designed binder)
chain: B1 chain with I19A, V104I
B34: E43D (designed binder)
chain: B1 chain with I19A, E43D
B35: R61W (designed binder)
chain: B1 chain with I19A, R61W
B36: S51C (designed binder)
chain: B1 chain with I19A, S51C
B37: L52R (designed binder)
chain: B1 chain with I19A, L52R
B38: A76N (designed binder)
chain: B1 chain with I19A, A76N
B39: E67F (designed binder)
chain: B1 chain with I19A, E67F
B40: A69W (designed binder)
chain: B1 chain with I19A, A69W

The assay concerns the target T1, TNFR1. Put plainly: yeast display SC50.
For B1, the “apparent Kd (screen)” value was determined as 0.956 nM.
With B2, the “apparent Kd (screen)” value came out at 24.4 nM.
B3: the “apparent Kd (screen)” value came out at 0.539 nM.
To B4 belongs 0.405 nM; to B5, 0.718 nM.
For B6, the “apparent Kd (screen)” value came out at 0.79 nM.
Take B7: the “apparent Kd (screen)” value is 29.5 nM.
B8: the “apparent Kd (screen)” value worked out at 0.49 nM.
Take B9: the “apparent Kd (screen)” value was 22.2 nM.
With B10 the figure was 1.4 nM.
With B11 the figure was 2.48 nM.
To B12 belongs 0.49 nM; to B13, 2.05 nM; to B14, 0.49 nM.
As to B15, the “apparent Kd (screen)” value worked out at 0.653 nM.
In the case of B16, the “apparent Kd (screen)” value was determined as 0.718 nM.
As to B17, the “apparent Kd (screen)” value came to 0.539 nM.
Take B18: the “apparent Kd (screen)” value was found to be 1.27 nM.
To B19 belongs 1.05 nM; to B20, 2.48 nM.
Turning to B21, the “apparent Kd (screen)” value is 0.79 nM.
To B22 belongs 0.718 nM.
To B23 belongs 13.8 nM.
To B24 belongs 24.4 nM.
In the case of B25, the “apparent Kd (screen)” value stood at 1.86 nM.
With B26 the figure was 1.27 nM; with B27, 0.718 nM.
On to B28, for which the “apparent Kd (screen)” value is 0.539 nM.
B29: the “apparent Kd (screen)” value was 0.718 nM.
To B30 belongs 0.539 nM; to B31, 0.653 nM; to B32, 0.653 nM.
With B33 the figure was 0.718 nM.
In the case of B34, the “apparent Kd (screen)” value worked out at 0.79 nM.
B35: the “apparent Kd (screen)” value amounted to 3.63 nM.
For B36, the “apparent Kd (screen)” value was determined as 1.05 nM.
As to B37, the “apparent Kd (screen)” value is 11.4 nM.
Take B38: the “apparent Kd (screen)” value amounted to 0.49 nM.
To B39 belongs 12.5 nM; to B40, 0.539 nM.
